# Assay results: article PMC11861356
# Target: IRF3 (UniProt Q14653)
# Test: co-immunoprecipitation of tagged proteins, immunoblot
# Details: reference: wild-type TBK1; sites Y174
substance,measurement,value
TBK1 (from UniProt Q9UHD2) TBK1 Y174F,binding against the reference,weaker
